Laboratory results as given in the supplement of paper PMC11246515.
± gives the standard deviation of the averaged measurements.

Experiment: total protein half-life in vivo (active degradation + dilution); higher = more stable protein
[1] = E. coli NCM3722 delta-clpP delta-lon delta-hslV, growth: N-lim chemostat, doubling time 6 h
[2] = E. coli NCM3722 delta-clpP, growth: N-lim chemostat, doubling time 6 h
[3] = E. coli NCM3722 delta-lon, growth: N-lim chemostat, doubling time 6 h
[4] = wild type E. coli NCM3722, growth: C-lim chemostat, doubling time 3 h
[5] = wild type E. coli NCM3722, growth: C-lim chemostat, doubling time 6 h
[6] = wild type E. coli NCM3722, growth: C-lim chemostat, doubling time 12 h
[7] = wild type E. coli NCM3722, growth: N-lim chemostat, doubling time 6 h
[8] = wild type E. coli NCM3722, growth: N-lim chemostat, doubling time 12 h
[9] = wild type E. coli NCM3722, growth: P-lim chemostat, doubling time 6 h
[10] = wild type E. coli NCM3722, growth: P-lim chemostat, doubling time 12 h
[11] = E. coli NCM3722 delta-hslV, growth: N-lim chemostat, doubling time 6 h
[12] = E. coli NCM3722 delta-smpB, growth: N-lim chemostat, doubling time 6 h

Row | Sequence | total protein half-life in vivo [1] | total protein half-life in vivo [2] | total protein half-life in vivo [3] | total protein half-life in vivo [4] | total protein half-life in vivo [5] | total protein half-life in vivo [6] | total protein half-life in vivo [7] | total protein half-life in vivo [8] | total protein half-life in vivo [9] | total protein half-life in vivo [10] | total protein half-life in vivo [11] | total protein half-life in vivo [12]
1 | MVLWQSDLRVSWRAQWLSLLIHGLVAAVILLMPWPLSYTPLWMVLLSLVVFDCVRSQRRINARQGEIRLLMDGRLRWQGQEWSIVKAPWMIKSGMMLRLRSDGGKRQHLWLAADSMDEAEWRDLRRILLQQETQR | 6.03 ± 0.068 h | 5.69 h | 4.15 ± 0.083 h | 3.47 h | 5.64 ± 1.5 h | 6.78 h | 5.67 h | 9.7 h | 3.85 ± 0.56 h | 7.57 h |  | 
2 | MQATATTLDHEQEYTPINSRNKVLVASLIGTAIEFFDFYIYATAAVIVFPHIFFPQGDPTAATLQSLATFAIAFVARPIGSAVFGHFGDRVGRKATLVASLLTMGISTVVIGLLPGYATIGIFAPLLLALARFGQGLGLGGEWGGAALLATENAPPRKRALYGSFPQLGAPIGFFFANGTFLLLSWLLTDEQFMSWGWRVPFIFSAVLVIIGLYVRVSLHESPVFEKVAKAKKQVKIPLGTLLTKHVRVTVLGTFIMLATYTLFYIMTVYSMTFSTAAAPVGLGLPRNEVLWMLMMAVIGFGVMVPVAGLLADAFGRRKSMVIITTLIILFALFAFNPLLGSGNPILVFAFLLLGLSLMGLTFGPMGALLPELFPTEVRYTGASFSYNVASILGASVAPYIAAWLQTNYGLGAVGLYLAAMAGLTLIALLLTHETRHQSL |  |  |  |  |  | 2.58 ± 0.1 h |  |  | 2.33 ± 0.58 h | 2.89 ± 1.6 h |  | 
3 | MMKTVKHLLCCAIAASALISTGVHAASWKDALSSAASELGNQNSTTQEGGWSLASLTNLLSSGNQALSADNMNNAAGILQYCAKQKLASVTDAENIKNQVLEKLGLNSEEQKEDTNYLDGIQGLLKTKDGQQLNLDNIGTTPLAEKVKTKACDLVLKQGLNFIS | 2.77 ± 0.018 h | 2.37 h | 3.02 ± 0.12 h | 2.22 ± 0.24 h | 3.873 ± 0.035 h | 3.5 h | 2.1 h |  | 3.43 h | 3.72 ± 0.56 h | 2.68 h | 2.56 ± 0.057 h
4 | MMKRNILAVIVPALLVAGTANAAEIYNKDGNKVDLYGKAVGLHYFSKGNGENSYGGNGDMTYARLGFKGETQINSDLTGYGQWEYNFQGNNSEGADAQTGNKTRLAFAGLKYADVGSFDYGRNYGVVYDALGYTDMLPEFGGDTAYSDDFFVGRVGGVATYRNSNFFGLVDGLNFAVQYLGKNERDTARRSNGDGVGGSISYEYEGFGIVGAYGAADRTNLQEAQPLGNGKKAEQWATGLKYDANNIYLAANYGETRNATPITNKFTNTSGFANKTQDVLLVAQYQFDFGLRPSIAYTKSKAKDVEGIGDVDLVNYFEVGATYYFNKNMSTYVDYIINQIDSDNKLGVGSDDTVAVGIVYQF | 5.54 ± 0.65 h | 6.23 ± 0.86 h | 6.91 ± 0.67 h | 3.19 ± 0.046 h | 6.83 ± 0.66 h | 11.12 ± 0.049 h | 5.95 ± 0.26 h | 10.9 ± 0.82 h | 6.15 ± 0.23 h |  | 5.98 ± 0.073 h | 5.865 ± 0.041 h
5 | MSHLAELVASAKAAISQASDVAALDNVRVEYLGKKGHLTLQMTTLRELPPEERPAAGAVINEAKEQVQQALNARKAELESAALNARLAAETIDVSLPGRRIENGGLHPVTRTIDRIESFFGELGFTVATGPEIEDDYHNFDALNIPGHHPARADHDTFWFDTTRLLRTQTSGVQIRTMKAQQPPIRIIAPGRVYRNDYDQTHTPMFHQMEGLIVDTNISFTNLKGTLHDFLRNFFEEDLQIRFRPSYFPFTEPSAEVDVMGKNGKWLEVLGCGMVHPNVLRNVGIDPEVYSGFAFGMGMERLTMLRYGVTDLRSFFENDLRFLKQFK | 5.84 ± 0.27 h | 6.11 ± 0.96 h | 6.07 ± 0.69 h | 3.49 ± 0.22 h | 6.19 ± 0.32 h | 12.5 ± 0.82 h | 5.37 ± 0.42 h | 9.85 ± 0.2 h | 6.28 ± 0.36 h | 12.91 ± 0.048 h | 5.72 ± 0.43 h | 4.98 ± 0.13 h
6 | MSAQINNIRPEFDREIVDIVDYVMNYEISSKVAYDTAHYCLLDTLGCGLEALEYPACKKLLGPIVPGTVVPNGVRVPGTQFQLDPVQAAFNIGAMIRWLDFNDTWLAAEWGHPSDNLGGILATADWLSRNAVASGKAPLTMKQVLTAMIKAHEIQGCIALENSFNRVGLDHVLLVKVASTAVVAEMLGLTREEILNAVSLAWVDGQSLRTYRHAPNTGTRKSWAAGDATSRAVRLALMAKTGEMGYPSALTAPVWGFYDVSFKGESFRFQRPYGSYVMENVLFKISFPAEFHSQTAVEAAMTLYEQMQAAGKTAADIEKVTIRTHEACIRIIDKKGPLNNPADRDHCIQYMVAIPLLFGRLTAADYEDNVAQDKRIDALREKINCFEDPAFTADYHDPEKRAIANAITLEFTDGTRFEEVVVEYPIGHARRRQDGIPKLVDKFKINLARQFPTRQQQRILEVSLDRARLEQMPVNEYLDLYVI |  |  |  | 3.04 ± 0.28 h | 4.21 ± 0.07 h | 8.53 ± 1 h | 5.98 h |  |  |  |  | 
7 | MEMTSAFTLNVRLDNIAVITIDVPGEKMNTLKAEFASQVRAIIKQLRENKELRGVVFVSAKPDNFIAGADINMIGNCKTAQEAEALARQGQQLMAEIHALPIQVIAAIHGACLGGGLELALACHGRVCTDDPKTVLGLPEVQLGLLPGSGGTQRLPRLIGVSTALEMILTGKQLRAKQALKLGLVDDVVPHSILLEAAVELAKKERPSSRPLPVRERILAGPLGRALLFKMVGKKTEHKTQGNYPATERILEVVETGLAQGTSSGYDAEARAFGELAMTPQSQALRSIFFASTDVKKDPGSDAPPAPLNSVGILGGGLMGGGIAYVTACKAGIPVRIKDINPQGINHALKYSWDQLEGKVRRRHLKASERDKQLALISGTTDYRGFAHRDLIIEAVFENLELKQQMVAEVEQNCAAHTIFASNTSSLPIGDIAAHATRPEQVIGLHFFSPVEKMPLVEIIPHAGTSAQTIATTVKLAKKQGKTPIVVRDKAGFYVNRILAPYINEAIRMLTQGERVEHIDAALVKFGFPVGPIQLLDEVGIDTGTKIIPVLEAAYGERFSAPANVVSSILNDDRKGRKNGRGFYLYGQKGRKSKKQVDPAIYPLIGTQGQGRISAPQVAERCVMLMLNEAVRCVDEQVIRSVRDGDIGAVFGIGFPPFLGGPFRYIDSLGAGEVVAIMQRLATQYGSRFTPCERLVEMGARGESFWKTTATDLQ | 6.37 ± 0.25 h | 6.427 ± 0.028 h | 6.41 ± 0.81 h | 2.94 ± 0.22 h | 6.2 ± 0.16 h | 12 ± 0.15 h | 5.986 ± 0.037 h | 13.5 ± 2.2 h | 6.1 ± 0.18 h | 12.3 ± 0.21 h | 6.27 ± 0.24 h | 5.89 ± 0.35 h
